The values that follow come from article PMC4268495 (Nature, 2014).

The test deals with T1, FtsZ (full length, recombinant) (Streptococcus pneumoniae, UniProt A0A0H2ZNE0 1-419).
T1 sequence (looked up): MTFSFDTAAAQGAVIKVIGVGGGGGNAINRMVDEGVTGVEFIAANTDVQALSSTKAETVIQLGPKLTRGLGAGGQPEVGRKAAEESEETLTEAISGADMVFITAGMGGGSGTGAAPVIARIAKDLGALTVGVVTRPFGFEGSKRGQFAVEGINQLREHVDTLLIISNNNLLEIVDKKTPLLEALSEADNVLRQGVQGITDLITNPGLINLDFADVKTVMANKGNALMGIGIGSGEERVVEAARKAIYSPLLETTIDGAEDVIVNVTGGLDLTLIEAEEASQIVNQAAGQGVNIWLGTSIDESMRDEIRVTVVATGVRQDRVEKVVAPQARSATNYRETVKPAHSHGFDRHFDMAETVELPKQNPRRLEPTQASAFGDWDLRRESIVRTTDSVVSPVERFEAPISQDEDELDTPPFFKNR
Nature of the test: SPR. On the technique in general: Surface plasmon resonance follows binding to a sensor surface in real time, without labels.

Where a chain is given by its changes, count along the chain named.

For the molecule MSKKRRNRHKKEAQEPQFDFDEAKELTVGQAIRKNEEVEAG (domain or fragment, Streptococcus pneumoniae, UniProt Q8DR55 1-41, looked up) [MapZ N-terminal peptide from Met-1 to Gly-41], the dissociation constant (Kd) was found to be 20.4 nM.

B1: MapZ cytoplasmic domain (domain or fragment, Streptococcus pneumoniae, UniProt Q8DR55 1-158, looked up)
chain: MSKKRRNRHKKEAQEPQFDFDEAKELTVGQAIRKNEEVEAGVLPEDSILDKYVKQHRDEIEADKFATRQYKKEEFVETQSLDDLIQEMREAVEKSEASSEEVPSSEDILLPLPLDDEEQGLDPLLLDDENPTEMTEEVEEEQNLSRLDQEDSEKKSKK
Take B1: the equilibrium dissociation constant (Kd) is 8.76 nM.

B2: MapZ-2TE cytoplasmic domain (domain or fragment, Streptococcus pneumoniae, UniProt Q8DR55 1-158, looked up)
chain: B1 chain with T67E, T78E
As for B2, the binding result is listed as “binds”.

Broadly, the Kd is a measure of binding affinity in units of concentration.
